This passage reports Km results from PMC5352144, “Deacetylation of sialic acid by esterases potentiates pneumococcal neuraminidase activity for mucin utilization, colonization and virulence” (PLoS Pathogens, 2017).

This series relates to CC(=O)Oc1ccc([N+](=O)[O-])cc1. Kind of series: purified protein. The following applies: pH 7.5.

Usually Km stands for the concentration of substrate that gives half-maximal velocity. Consider Axe (Streptococcus pneumoniae D39), for which the Km turned out to be 4.4 ± 0.58 mM.
